{
  "source": "the nanobody polyreactivity screen of Harvey et al. (2022)",
  "data": [
    {"experiment": "yeast display, Sf9 membrane polyspecificity reagent, FACS + sequencing; frameworks hold sequencing errors", "summary_of_the_method": "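A nanobody's polyreactivity label depends on the gate it was sorted from. Yeast display cells were stained with 10% biotinylated, detergent-solubilized Sf9 membrane reagent for 1 hour at 4 °C, enriched on streptavidin microbeads and sorted by FACS. The low and high (top ~1%) gates were set on anti-HA fluorescence for expression and streptavidin fluorescence for reagent binding.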", "values": [
      {"sequence": "QVQLVESGGGLVQAGGSLRLSCAASGFTFGEYAMGWYRQQPGKERELVAAISSSSGSTYYADSVKGRFTISRDNAKYTVYLQMNSLKPEDTAVYYCAATTSPRSARYYYWGQGTQVTVSS", "polyreactivity (PSR sort gate)": "high polyreactivity"},
      {"sequence": "QVQLVESGGGLVQAGGSLRLSCAASGFTFGGNAMGWYRQAPGKERELVADITWSGGSTYYADSVKGRFTISRDNAKNTVYLQMNSLKPEDTAVYYCNTVRYPSSNSGLDYWGQGTQVTVSS", "polyreactivity (PSR sort gate)": "high polyreactivity"},
      {"sequence": "QVQLVESGGGLVQAGGSLRLSCAASGFTFGGYAMGWYRQAPGKERELVAAIRSTGDTTYYADSVKGRFTISRDNAKNTVYVQMNSLKPEDTAVYYCNADLSRDNDFDYWGQGTQVTVSS", "polyreactivity (PSR sort gate)": "low polyreactivity"},
      {"sequence": "QVQLVESGGGLVQAGGSLRLSCAASGFTFGGYAMGWYRQAPGKERELVAAITGSGGNTFYADSVKGRFTISRDNAKNTVYLQMNSLKPEDTAVYYCAALAPYIGGVDYDYWGQGTQVTVSS", "polyreactivity (PSR sort gate)": "low polyreactivity"},
      {"sequence": "QVQLVESGGGLVQAGGSLRLSCAASGFTFGGYAMGWYRQAPGKERELVAAITRSGGRTYYADSVKGRFTISRDNAKNTVYLQMNSLKPEDTAVYYCNAYVIRALGYGGYDYWGQGTQVTVSS", "polyreactivity (PSR sort gate)": "high polyreactivity"},
      {"sequence": "QVQLVESGGGLVQAGGSLRLSCAASGFTFGGYARGWSRQAPRTERELVAAISSSAGRTYYADSVKGRFTISRDNAKNTVYVQMNRLKPEDTAVYYCNTGGVYGPRRYYYWGQGTQVTVSS", "polyreactivity (PSR sort gate)": "high polyreactivity"},
      {"sequence": "QVQLVESGGGLVQAGGSLRLSCAASGFTFGHYAMGWYRQAPGKERELVAAISKSGTRTYYADSVKGRFTISRDNAKNTVYLLMNSLKPEDTAVYYCATTAYNGYDYWGQGTQVTVSS", "polyreactivity (PSR sort gate)": "high polyreactivity"},
      {"sequence": "QVQLVESGGGLVQAGGSLRLSCAASGFTFGHYAMGWYRQAPGKERELVAAISRSGGTTSYADSVKGRFTISRDNAKNTVYLQMNSLKPEDTAVYYCNKDYIWARYGGGRDYWGQGTQVTVSS", "polyreactivity (PSR sort gate)": "low polyreactivity"},
      {"sequence": "QVQLVESGGGLVQAGGSLRLSCAASGFTFGHYVMGWSRQAPGKERELVAAITLSGGGTYYADSVKGRFTISRDNAKNTVYLQMNSLKPEDTAVYYCAAVGGEHAKKTYSRYKVDYWGQGTQVTVSS", "polyreactivity (PSR sort gate)": "low polyreactivity"},
      {"sequence": "QVQLVESGGGLVQAGGSLRLSCAASGFTFGLYGMGWYRQAPGKERELVAAISSSGGDTYYADSVKGRFTISRDNAKNTVYLQMNSLKPEDTAVYYCAADRLPQYDYWGQGTQVTVSS", "polyreactivity (PSR sort gate)": "low polyreactivity"},
      {"sequence": "QVQLVESGGGLVQAGGSLRLSCAASGFTFGNYVMGWYRQAPGKERELVAAISKRGTSTYYADSVKGRFTISRDNAKNTVYLQMNSLKPEDTAVYYCAADGVYSHKDGLWGQGTQVTVSS", "polyreactivity (PSR sort gate)": "high polyreactivity"},
      {"sequence": "QVQLVESGGGLVQAGGSLRLSCAASGFTFGPNTMGWYRQAAGKERELVATITWRGDGSTYYADSVKGRFTISRDNAKNTVYLQMNSLKPEDTAVYYCAAVIRPFSRRDMYYWGQGTQVTVSS", "polyreactivity (PSR sort gate)": "low polyreactivity"},
      {"sequence": "QVQLVESGGGLVQAGGSLRLSCAASGFTFGPYAMGWYRQAPGKERELVAGITWSGASTYYADSVKGRFTISRDNAKNSVYLQMNSLKPEDTAVYYCARYYRLGSRYDYWGQGTQVTVSS", "polyreactivity (PSR sort gate)": "low polyreactivity"},
      {"sequence": "QVQLVESGGGLVQAGGSLRLSCAASGFTFGPYDMGWYRQAPGKERELVAVIIGGDSTNYADSVKGRFTISRDNAKNSVYLQMNSLKPEDTAVYYCAADYIDRVGWMDYWGQGTQVTVSS", "polyreactivity (PSR sort gate)": "low polyreactivity"},
      {"sequence": "QVQLVESGGGLVQAGGSLRLSCAASGFTFGRYALGWYRQPPGKERELVAVISWSGVSTYYADSVKGRFTISRDNAKNTVYLQMNSLKPEDTAVYYCNKRSYHYPYGYDYWGQGTQVTVSS", "polyreactivity (PSR sort gate)": "high polyreactivity"},
      {"sequence": "QVQLVESGGGLVQAGGSLRLSCAASGFTFGRYAMGRYRPAPGKVRELVATITRTGSTNYADSVKGRFTISRDNAKNTVDLQMHSLKPEDTAVYYCNAVYSACRYVKYDYWGQGTQVTVSS", "polyreactivity (PSR sort gate)": "low polyreactivity"},
      {"sequence": "QVQLVESGGGLVQAGGSLRLSCAASGFTFGRYAMGWYRQAPGKERELVAAIATRGGSTYYADSVKGRFTISRDNAMNTVYLQMNSLKPEDTAVYYCAAGGYYVRYDYWGQGTQVTVSS", "polyreactivity (PSR sort gate)": "high polyreactivity"},
      {"sequence": "QVQLVESGGGLVQAGGSLRLSCAASGFTFGRYAMGWYRQAPGKERELVAAISYSGGSTYYADSVKGRFTISRDNAKNTVYLQMNSLKPEDTAVYYCAARDSYWSVYYWGQGTQVTVSS", "polyreactivity (PSR sort gate)": "high polyreactivity"},
      {"sequence": "QVQLVESGGGLVQAGGSLRLSCAASGFTFGRYAMGWYRQAPGKERELVAAITRGSGGSYYADSVKGRFTISRDIAKNTVYLQMNSLKPDDTAVYYCATGSRSRGALRYAHFDYWGQGTQVTVSS", "polyreactivity (PSR sort gate)": "high polyreactivity"},
      {"sequence": "QVQLVESGGGLVQAGGSLRLSCAASGFTFGSNAMGWYRPAAGKERELVASITTRGGSTYYADSVKGRFTISRDNAKNTVYLQMNSLKPEDTAVYYCAARARYPNWTYYYWGQGTQVTVSS", "polyreactivity (PSR sort gate)": "high polyreactivity"},
      {"sequence": "QVQLVESGGGLVQAGGSLRLSCAASGFTFGSNAMGWYRQAPGKERELVAAISSRGGRTYYADSVKGRFTISRDNAKNTVYLQMNSLKPEDTAVYYCNADATVAWREQEYEYWGQGTQVTVSS", "polyreactivity (PSR sort gate)": "high polyreactivity"},
      {"sequence": "QVQLVESGGGLVQAGGSLRLSCAASGFTFGSNAMGWYRQAPGKERELVAAISWSGGRTYYADSVKGRFTISRDNAKNTVYLQMNILKPEDTAVFYCNKQYVKPWYRGYYYWGQGTQVTVSS", "polyreactivity (PSR sort gate)": "high polyreactivity"},
      {"sequence": "QVQLVESGGGLVQAGGSLRLSCAASGFTFGSYAKGWYRQAPGKERELVAAIRASGGRTYYADSVKGRFTISRDNAKNTVFLQMNSLKPEDTAVYYCAADTGGNPKYDYWGQGTQVTVSS", "polyreactivity (PSR sort gate)": "high polyreactivity"},
      {"sequence": "QVQLVESGGGLVQAGGSLRLSCAASGFTFGSYAMGWYRQAPGKDRELVARISSDGSTNYADSVKGRFTISRDYAKNTVYLQMNSLKPEDTAVYYCAVRHRYTRAYWGRDYWGQGTQVTVSS", "polyreactivity (PSR sort gate)": "low polyreactivity"},
      {"sequence": "QVQLVESGGGLVQAGGSLRLSCAASGFTFGSYAMGWYRQAPGKEREFVAAITRSGGRTYYADSVKGRFTISRDNAKNTVYLQMNSLKPEDTAVSYCNAYRSALYTPEYDYWGQGTQVNVSS", "polyreactivity (PSR sort gate)": "high polyreactivity"},
      {"sequence": "QVQLVESGGGLVQAGGSLRLSCAASGFTFGSYAMGWYRQAPGKERELVAAITSRGGSTYYADSVKGRFTISRDNAKNTVYLQMNSLKPEDTAVYYCNAVLPVYRTNMDYWGQGTQVTVSS", "polyreactivity (PSR sort gate)": "high polyreactivity"},
      {"sequence": "QVQLVESGGGLVQAGGSLRLSCAASGFTFGSYAMGWYRQAPGKERELVAAITWSGGSTYYADSVKGRFTISRDNAKNTVYLQMNSLKPEDTAVYYCNAEIRYYGYDYWGQGTQVTVSS", "polyreactivity (PSR sort gate)": "high polyreactivity"},
      {"sequence": "QVQLVESGGGLVQAGGSLRLSCAASGFTFGSYAMGWYRQAPGKERELVAASTRRGDNTYYADSVKGRFTISRDNAKNTVYLQMNSLKPEDTAVYYCNVGLRSVVSGEYWGHGTQVTVSS", "polyreactivity (PSR sort gate)": "high polyreactivity"},
      {"sequence": "QVQLVESGGGLVQAGGSLRLSCAASGFTFGSYAMGWYRQATGKERELVAVITRSGRTNYADSVKGRFTITRDNAKNTVFLQMNSMKPEDTAVYYCNADDVDDEVSPDLTEMDNWGLGTQVTVSS", "polyreactivity (PSR sort gate)": "low polyreactivity"},
      {"sequence": "QVQLVESGGGLVQAGGSLRLSCAASGFTFGTYAMGWYRQAPGKERELVAAISKRGGSTYYADSVKGRFTISRDNAKNTVYLQMNSLKPEDTAVYYCATGSYTTYGYGYWGQGTQVTVSS", "polyreactivity (PSR sort gate)": "high polyreactivity"},
      {"sequence": "QVQLVESGGGLVQAGGSLRLSCAASGFTFGVYAKGWYRQEPGKEREMVAAISSRRGSTYYADSVKGRFTISRDNAKNTVYLQMNSLKPEDTAVYYCAKRLGNTVGKEDYWGQGTQVTVTS", "polyreactivity (PSR sort gate)": "low polyreactivity"},
      {"sequence": "QVQLVESGGGLVQAGGSLRLSCAASGFTFGVYALGGYRQAPGKEREFVAAISRSGSSTYYADSVKGRFTISRDNAKNTVYLQMNSLKPEDTAVYYCAKRSGNRYSFDYWGQGTQVTVSS", "polyreactivity (PSR sort gate)": "high polyreactivity"},
      {"sequence": "QVQLVESGGGLVQAGGSLRLSCAASGFTFGWYAMGWYRQAPGKEREFVATITYSGGSTYYADSVKGRFTISRDNAKNTVYLQMNSLKPEDTAVYYCAAARYWYRRFDYWGQGTQVTVSS", "polyreactivity (PSR sort gate)": "high polyreactivity"},
      {"sequence": "QVQLVESGGGLVQAGGSLRLSCAASGFTFGYYAMGWYRQAPGKERELVAAISRSGGRTYYADSVKGRFTISRDNAKNTVYLEMNSLKPEDTAVYYCNAVIHGWTLDYEYWGQGTQVTVSS", "polyreactivity (PSR sort gate)": "high polyreactivity"},
      {"sequence": "QVQLVESGGGLVQAGGSLRLSCAASGFTFGYYAMGWYRQAPGKERELVAAISSSGGSTYYADSVKGRFTISRDNAKNTVYLQMNSLKPEDTAVYYCAVVVFSRVYRYFTSDYWGQGTQVTVSS", "polyreactivity (PSR sort gate)": "high polyreactivity"},
      {"sequence": "QVQLVESGGGLVQAGGSLRLSCAASGFTFGYYAMGWYRQAPGKERELVAAITYDGDITYYADSVKGRFTISRDNAKNTVYLQMNSLKPEDTAVYYCNRDVLTFNYDYWGQGTQVTVSS", "polyreactivity (PSR sort gate)": "low polyreactivity"},
      {"sequence": "QVQLVESGGGLVQAGGSLRLSCAASGFTFGYYAMGWYRQAPGKERELVAAITYDGDITYYADSVKGRFTISRDNAKNTVYLQMNSLKPEVTAVYYCNRDVLTFNYDYWGQGTQVTVSS", "polyreactivity (PSR sort gate)": "low polyreactivity"},
      {"sequence": "QVQLVESGGGLVQAGGSLRLSCAASGFTFGYYAMGWYRQAPGKERELVATIDRGGGTSYADSVKGRFTISRDNAKNTVYLQMNSLKPEDTAVYYCNRACYGAKARRYRSYWGQGTQVTVSS", "polyreactivity (PSR sort gate)": "high polyreactivity"},
      {"sequence": "QVQLVESGGGLVQAGGSLRLSCAASGFTFGYYGMGWSRQAPGKERELVAGISSSGSRTYYADSVKGRFTISRDNAKNTVYLQMNSLKPEDTAVYYCNKYYSGKSYTGEDYWGQGTQVTVSS", "polyreactivity (PSR sort gate)": "high polyreactivity"},
      {"sequence": "QVQLVESGGGLVQAGGSLRLSCAASGFTFGYYTMGWYRQAPGKERELVAAITWRGTTYYADSVKGRFTISRDNAKNTVYLQMNSLKPEDTAVYYCATVVLLRIWGGYWGQGTQVTVSS", "polyreactivity (PSR sort gate)": "high polyreactivity"},
      {"sequence": "QVQLVESGGGLVQAGGSLRLSCAASGFTFGYYTMGWYRQAPGKERELVASISRTGGRTYADSVKGRFTISRDNAKNTVYLQMNSLKPEDTAVYYCAAYRQGSAYDYWGQGTQVTVSS", "polyreactivity (PSR sort gate)": "high polyreactivity"},
      {"sequence": "QVQLVESGGGLVQAGGSLRLSCAASGFTFGYYVMGWYRQAPGKERELVAAITSGGRTKYADSVKGRFTISRDNAKNTVYLQMNSLKPEDTAVYYCAAKSRVHVDYWGQGTQVTVSS", "polyreactivity (PSR sort gate)": "high polyreactivity"},
      {"sequence": "QVQLVESGGGLVQAGGSLRLSCAASGFTFHFYAMGWYRQAPGKEREWVAAISWRGSSTYYADSVKGRFTISRDNAKNTVYLQMNSLKPEDTAVYYWNALYYYPYDYWGQGTQVTVSS", "polyreactivity (PSR sort gate)": "high polyreactivity"}
    ]}
  ]
}
